{
  "source": "the supplement of paper PMC12764529",
  "note": "± gives the half width of the 95% confidence interval.",
  "data": [
    {"assay": "folding stability dG unfold from trypsin proteolysis; higher = more stable", "summary_of_the_method": "(§1)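 Unfolding free energy was derived, per protease or combined, by relating Bayesian-fitted K50 values from sequencing counts to a sequence-predicted unfolded-state K50 and a shared folded-state K50. The underlying digests exposed cysteine-free mini-proteins under 80 residues, in a PA-tagged cDNA display construct, to trypsin and chymotrypsin at 11 threefold-diluted concentrations and to a no-protease condition. A filter kept only designs with AlphaFold2 dimer inter-PAE above 15.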", "units": {"folding stability dG unfold": "kcal/mol"}, "values": [
      {"sequence": "SMEDMSVEELLELLREKLREAREKGKSLEDIKITIVIVAETEEEKEAIAKALKEEFPEIKEIKIEVLPPESA [r9_341_TrROS_Hall]", "folding stability dG unfold": "3.06 ± 0.14"},
      {"sequence": "SAGGSAGGSPMVVFEFKIKDPKIRKAIDEAKKDGDKSAEIPFPNGWPIRITEIEDNYIRITIWSAGGSAGGS [r12_334_TrROS]", "folding stability dG unfold": "1.17 ± 0.058"},
      {"sequence": "SWYHIQFWLEGNSIEELMKWAKELAKQGNFEITKISNEHMHITIEIKLKPPPPPPPPPPKEEYDGDGKPKSA [r9_830_TrROS]", "folding stability dG unfold": "2.53 ± 0.56"},
      {"sequence": "SAMLVITRPDGRPYLVRLKVDKVEPSPDGTLITVEFTLELFSPDGTPETFKGTLIFDPKTGKLVLKIDPSAG [r14_789_TrMRF]", "folding stability dG unfold": "2.83 ± 0.056"},
      {"sequence": "SAGGSAGGSAMKRVTLTFPSTGKTLTFDFTTEEDIEAAIKAALGPEVDPAKVTVTVLPPGAASAGGSAGGSA [r18_350_JUSTAS]", "folding stability dG unfold": "1.04 ± 0.054"},
      {"sequence": "SAGGSAGGMKVKIVSFDPENQEVVIYDEKTGKEIVVKAKSVEELKAALEKLGLEVEVEVLPPEESAGGSAGG [r6_27_TrROS_Hall]", "folding stability dG unfold": "2.99 ± 0.43"},
      {"sequence": "SAGGPPGEEIPIMVRIKMRNPENGEEMELPITHTVKSKEDLKWAKKLVDEIAEEFREQGMKDVEIEIFSAGG [r13_360_TrROS]", "folding stability dG unfold": "0.47 ± 0.15"},
      {"sequence": "SAGGSAVIVIETRADDPRLLEAIKKAREEGKPVVVRFPDGKALVFYPEGPVEEVDSPEQLKEAGFGSAGGSA [r15_94_TrMRF]", "folding stability dG unfold": "2.19 ± 0.033"},
      {"sequence": "SAGGKVVPILIEGELTAEEIKALIPPGELAVLYDLETGEVRVFSPEDLDKIPSDVPLRFLLLIFRPDSAGGS [r8_66_TrMRF]", "folding stability dG unfold": "2.93 ± 0.051"},
      {"sequence": "SALPPGAPPKPERLVLTLTVSEEEVKKGDLEKVRRLVEELVEALREAGFEVKEVEVVEEDGKLTVRIVLDSA [r9_75_TrROS_Hall]", "folding stability dG unfold": "3.04 ± 0.26"},
      {"sequence": "SAGGVDPSKLTPLSTREVPVDDRRLLVTTYLTPDGKPLYTVTVLDAEGRPLGSELVPPEKVSADGRLESAGG [r13_447_JUSTAS]", "folding stability dG unfold": "-0.0975 ± 0.1"}
    ]},
    {"assay": "folding stability dG unfold from chymotrypsin proteolysis; higher = more stable", "summary_of_the_method": "as §1", "units": {"folding stability dG unfold": "kcal/mol"}, "values": [
      {"sequence": "SAGGSALPIETPSDGVVPYTDPVTGKTYTVTFRRDEGKTSFRVEEPESSATREVTEPVSVTEAVLTSAGGSA [r15_234_JUSTAS]", "folding stability dG unfold": "0.069 ± 0.13"},
      {"sequence": "SAGGSAGGSAGGSMTIIVKTEEEAKQLAERLKKELEELGLLENLKIEIKVIPEEDLPPESAGGSAGGSAGGS [r4_472_TrROS_Hall]", "folding stability dG unfold": "2.33 ± 0.052"},
      {"sequence": "SAGGSASTPDGKTKTYTNTNPGATEEEVKPIAEEIAKEIAEKLGLDLSEIGISVSYDPNTGTISPLIGSAGG [r13_913_JUSTAS]", "folding stability dG unfold": "-0.321 ± 0.49"},
      {"sequence": "SAGGSAGPTTTPTTYARITATLRKGGETITVELEVPTSVVEEAVEALAKELGVEIEKVEVTLTEERSAGGSA [r15_535_JUSTAS]", "folding stability dG unfold": "2.4 ± 0.042"},
      {"sequence": "SAGGPPGDPILLRISYTIRPNGKERTMDHEIPFKNPNQPITLEQIRKELRDALPPGYKITDVEIDVLSAGGS [r16_407_TrROS]", "folding stability dG unfold": "0.276 ± 0.16"},
      {"sequence": "SMTLTIEVDPNDPAKVKALIDSTPPDTTVTLVFPQEDGSKPVKTITVKPPLEKPISPENMTPKNVAARKKSA [r9_1103_JUSTAS]", "folding stability dG unfold": "0.481 ± 0.099"},
      {"sequence": "GFDEAELKKLLEEKAAELEKKGYKVLKTSIEPVPDGTYGGKIGNKTITHPTPNGLTYSVSVYYEKVSPKKKS [r1_31_JUSTAS]", "folding stability dG unfold": "0.331 ± 0.25"},
      {"sequence": "SAGGSAGTITIMFPIPPGKEVKMKFLFYIPDGYIFNVDITQTGPGYITITIPIYRLPENAKDPDLISAGGSA [r15_909_TrROS]", "folding stability dG unfold": "4.78 ± 0.18"},
      {"sequence": "SAGSMVEERVRELLRELDPERPWEIERLPDGTIVARDPETGRWYIFKVEPDGTVTLERVLSLEEYERLSSAG [r5_852_JUSTAS]", "folding stability dG unfold": "4.78 ± 0.076"},
      {"sequence": "SAGGSAGGSAGGSSTILIPSSTSEEYAESLAKELKKKGNVKTSFDPSTGVLVLTLPGGSSSAGGSAGGSAGG [r7_219_JUSTAS]", "folding stability dG unfold": "0.0516 ± 0.2"},
      {"sequence": "SAGGSAGGSAGGKPKKVVIYIELTPEQEEAIKKGKSLEEVVEELIKEAEKKGLEVEIVGSAGGSAGGSAGGS [r10_890_TrROS_Hall]", "folding stability dG unfold": "1.93 ± 0.067"},
      {"sequence": "SAGGMTLEITITFPGPEMLEEAKKIIDELGIELVNPTPNSLTVKAKGPEEVAKIKEEAKKLGFTVTGSAGGS [r16_88_JUSTAS]", "folding stability dG unfold": "3.19 ± 0.086"},
      {"sequence": "SAGGSAGGSANFKILAVEVQPAGNGIMVRAIIEFPDGWIIKFSFWFRNDGIKINIEIVPLDDSAGGSAGGSA [r18_79_TrROS]", "folding stability dG unfold": "5.7 ± 0.12"},
      {"sequence": "SAGGSAGGSAGGMPVTFTGENQPVEVLSVDPERPVVVVYYPPTGTLLVALPPTGKVFPVSAGGSAGGSAGGS [r10_440_TrMRF]", "folding stability dG unfold": "0.492 ± 0.15"},
      {"sequence": "SAGFVPGKLKAVDPNGNEIDVIEIEELPNGKVIAKGKNKTNGFPYIATYDPVSGKVYIILPNGKVIEIGSAG [r5_809_TrMRF]", "folding stability dG unfold": "1.82 ± 0.12"},
      {"sequence": "SAGGMLKFTDPKTGNEYTVTEYDPNTGVYLVTTTYPDGTTTTREFPGSLEDIVKHLEEEGYPTTVVGSAGGS [r16_748_JUSTAS]", "folding stability dG unfold": "3.38 ± 0.1"},
      {"sequence": "SAGGSAMAIVEYDPDNRVRAIVYFPGEKRVALVEVDDDTATVTAVYDLSDDGVATYLDEATFEIGGSAGGSA [r2_60_TrMRF]", "folding stability dG unfold": "0.87 ± 0.043"},
      {"sequence": "SAGGSAGGSAMETYEIEVNGKLITITRSEDGTYKITDKDTGKTITIPAEDLKKLKPGDKLLSAGGSAGGSAG [r3_256_TrROS_Hall]", "folding stability dG unfold": "2.18 ± 0.036"},
      {"sequence": "SAGTTVTLTDPVTGNVTTITKDPTDPNLWTVTLPDGSSVTAKRSEIAKKLGLSPEKLLSDYPVPSVSLTSAG [r5_156_JUSTAS]", "folding stability dG unfold": "1.88 ± 0.024"},
      {"sequence": "SAGGGPMPVEKEVEITLEVDPSDPASVRARLEALAASRGVEEITEITEETLPDGSRRVTAKVKWLLPVSAGG [r13_222_JUSTAS]", "folding stability dG unfold": "0.397 ± 0.15"},
      {"sequence": "SAGGSAGGSAGGDKNDLSPGATISTYTNPGSFTVTLPTGETVTLPKTVTTTVTFFDSTNSAGGSAGGSAGGS [r10_643_JUSTAS]", "folding stability dG unfold": "0.104 ± 0.14"}
    ]}
  ]
}
